Results as given in patent US20240383984A1 (Genentech, published 2024).

T1: human FcRH3 (BIACORE analyte) (human, UniProt Q96P31 18-573, limits assumed)
T1 construct: also called huFcRH3
T1 sequence (looked up): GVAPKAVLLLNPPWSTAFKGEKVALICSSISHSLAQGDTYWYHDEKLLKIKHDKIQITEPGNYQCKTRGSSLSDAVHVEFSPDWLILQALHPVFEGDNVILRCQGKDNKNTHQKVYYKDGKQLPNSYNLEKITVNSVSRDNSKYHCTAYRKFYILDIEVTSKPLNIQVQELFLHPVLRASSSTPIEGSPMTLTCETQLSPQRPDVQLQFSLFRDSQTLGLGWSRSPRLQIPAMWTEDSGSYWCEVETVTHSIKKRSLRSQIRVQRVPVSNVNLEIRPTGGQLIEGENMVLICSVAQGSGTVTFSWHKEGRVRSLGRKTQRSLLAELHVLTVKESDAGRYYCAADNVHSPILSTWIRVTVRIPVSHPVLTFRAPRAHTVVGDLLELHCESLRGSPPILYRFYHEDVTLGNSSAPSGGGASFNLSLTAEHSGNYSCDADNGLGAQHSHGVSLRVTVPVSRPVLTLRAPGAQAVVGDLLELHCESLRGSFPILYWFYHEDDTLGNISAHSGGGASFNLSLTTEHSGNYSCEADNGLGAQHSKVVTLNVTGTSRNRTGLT

T2: 293-FcRH5-DEL (human, UniProt Q96RD9)
T2 construct: domain 9 deletion, expressed on 293 cells
T2 sequence (receptor, looked up): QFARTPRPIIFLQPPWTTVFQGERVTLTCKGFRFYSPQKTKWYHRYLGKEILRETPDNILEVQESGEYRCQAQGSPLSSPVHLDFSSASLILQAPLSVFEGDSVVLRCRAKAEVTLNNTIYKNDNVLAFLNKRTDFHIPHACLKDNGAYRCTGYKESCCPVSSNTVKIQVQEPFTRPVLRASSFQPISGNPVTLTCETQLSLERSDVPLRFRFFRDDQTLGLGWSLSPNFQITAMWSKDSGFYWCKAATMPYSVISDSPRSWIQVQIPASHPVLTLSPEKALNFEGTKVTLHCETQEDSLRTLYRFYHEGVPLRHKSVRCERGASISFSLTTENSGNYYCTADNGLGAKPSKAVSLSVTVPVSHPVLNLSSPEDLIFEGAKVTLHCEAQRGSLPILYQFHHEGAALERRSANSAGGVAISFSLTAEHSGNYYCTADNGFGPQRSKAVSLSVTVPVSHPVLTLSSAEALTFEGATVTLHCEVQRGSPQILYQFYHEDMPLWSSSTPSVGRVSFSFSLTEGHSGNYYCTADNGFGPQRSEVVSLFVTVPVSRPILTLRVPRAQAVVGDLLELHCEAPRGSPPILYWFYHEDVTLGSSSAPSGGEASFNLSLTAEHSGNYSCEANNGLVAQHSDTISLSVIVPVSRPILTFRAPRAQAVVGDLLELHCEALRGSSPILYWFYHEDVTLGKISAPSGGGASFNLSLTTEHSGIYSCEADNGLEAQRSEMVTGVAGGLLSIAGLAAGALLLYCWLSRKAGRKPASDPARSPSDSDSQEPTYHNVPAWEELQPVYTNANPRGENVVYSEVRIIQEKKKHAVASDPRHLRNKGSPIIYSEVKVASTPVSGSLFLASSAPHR

T3: human FcRH2 (full-length, on SVT2 cells) (human, UniProt Q96LA5 20-508)
T3 construct: whole, on cells; also called SVT2-FcRH2
T3 sequence (looked up): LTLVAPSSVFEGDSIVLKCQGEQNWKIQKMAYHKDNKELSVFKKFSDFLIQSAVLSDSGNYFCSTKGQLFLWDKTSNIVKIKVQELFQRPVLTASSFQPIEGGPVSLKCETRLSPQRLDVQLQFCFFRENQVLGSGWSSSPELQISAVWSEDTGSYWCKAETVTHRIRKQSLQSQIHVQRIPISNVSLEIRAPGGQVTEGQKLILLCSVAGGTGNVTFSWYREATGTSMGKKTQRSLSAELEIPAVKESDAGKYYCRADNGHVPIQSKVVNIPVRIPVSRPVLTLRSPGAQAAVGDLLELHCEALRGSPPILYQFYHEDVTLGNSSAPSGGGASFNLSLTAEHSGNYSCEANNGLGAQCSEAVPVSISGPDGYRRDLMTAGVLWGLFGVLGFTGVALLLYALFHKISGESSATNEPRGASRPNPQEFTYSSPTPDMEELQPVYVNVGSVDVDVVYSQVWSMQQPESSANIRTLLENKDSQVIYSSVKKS

T4: human FcRH4 (full-length, on SVT2 cells) (human, UniProt Q96PJ5 20-515)
T4 construct: whole, on cells; also called SVT2-FcRH4
T4 sequence (looked up): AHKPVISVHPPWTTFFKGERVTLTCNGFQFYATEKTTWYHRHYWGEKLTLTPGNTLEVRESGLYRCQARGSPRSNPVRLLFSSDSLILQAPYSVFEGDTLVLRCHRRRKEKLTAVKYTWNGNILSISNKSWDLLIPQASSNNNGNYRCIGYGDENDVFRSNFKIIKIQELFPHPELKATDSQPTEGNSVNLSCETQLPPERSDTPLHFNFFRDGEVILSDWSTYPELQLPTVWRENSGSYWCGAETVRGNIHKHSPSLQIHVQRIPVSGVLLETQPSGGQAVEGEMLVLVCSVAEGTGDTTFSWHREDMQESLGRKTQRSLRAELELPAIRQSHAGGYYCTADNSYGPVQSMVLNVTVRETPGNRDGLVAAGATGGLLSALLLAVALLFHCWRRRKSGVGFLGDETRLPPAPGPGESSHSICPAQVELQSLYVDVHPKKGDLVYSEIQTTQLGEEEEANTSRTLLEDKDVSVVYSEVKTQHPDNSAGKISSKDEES


Columns and labels:
[1] = molecular target: T1, human FcRH3 (BIACORE analyte); test: SPR (BIACORE), TDB captured as ligand, FcRH3 as analyte, 25 °C, 1:1 binding model
293-FcRH5-DEL = molecular target: T2, 293-FcRH5-DEL; test: flow cytometry on 293 cells with domain 9-deleted FcRH5, PE-labelled secondary
[2] = molecular target: T3, human FcRH2 (full-length, on SVT2 cells); test: flow cytometry on SVT2-FcRH2 cells, PE-labelled secondary
Experimental: (§1) Human FcRH5, cyno FcRH5, human FcRH1, FcRH2, FcRH3, and FcRH4 transfected mouse SVT2 cells were used to test binding and cross-reactivity of FcRH5 TDBs. The method was carried out as follows. Cultured SVT2 cells were lifted using non-enzyme cell dissociation buffer (Sigma, #C5914). 1×10⁵ cells were suspended in 100 μL and incubated with FcRH5 TDBs at 3 μg/ml. […] Cells were washed twice with FACS buffer before flow cytometry analysis was carried out on a FACSCalibur.

[3] = molecular target: T4, human FcRH4 (full-length, on SVT2 cells); test: flow cytometry on SVT2-FcRH4 cells, PE-labelled secondary
Experimental: as §1

Binder | koff [1] [s⁻¹] | kon [1] [M⁻¹ s⁻¹] | binding result (293-FcRH5-DEL) | binding result [2] | binding result [3]
hu1G7.v1.4/38E4.v1 TDB (bispecific antibody, V domains shown, knob-into-hole TDB; also called 1G7.v1.4 TDB; 1G7.v1.4 (TDB format)) VH 1: EVQLVESGPGLVKPSETLSLTCTVSGFSLTRFGVHWVRQPPGKGLEWLGVIWRGGSTDYNAAFMSRLTISKDNSKNQVSLKLSSVTAADTAVYYCSNHYYGSSDYALDNWGQGTLVTVSS VL 1: DIQMTQSPSSLSASVGDRVTITCKASQDVRNLVVWFQQKPGKAPKLLIYSGSYRYSGVPSRFSGSGSGTDFTLTISSLQPEDFATYYCQQHYSPPYTFGQGTKVEIK VH 2: EVQLVQSGAEVKKPGASVKVSCKASGFTFTSYYIHWVRQAPGQGLEWIGWIYPENDNTKYNEKFKDRVTITADTSTSTAYLELSSLRSEDTAVYYCARDGYSRYYFDYWGQGTLVTVSS VL 2: DIVMTQSPDSLAVSLGERATINCKSSQSLLNSRTRKNYLAWYQQKPGQSPKLLIYWTSTRKSGVPDRFSGSGSGTDFTLTISSLQAEDVAVYYCKQSFILRTFGQGTKVEIK | 0.00833 | 109000 |  |  | 
1G7.v85/38E4.v1 TDB (bispecific antibody, V domains shown, knob-into-hole TDB; also called 1G7.v85 TDB; 1G7.v85 (TDB format)) VH 1: EVQLVESGPGLVKPSETLSLTCTVSGFSLTRFGVHWVRQPPGKGLEWLGVIWRGGSTDYNAAFVSRLTISKDNSKNQVSLKLSSVTAADTAVYYCSNHYYGSSDYALDNWGQGTLVTVSS VL 1: DIQMTQSPSSLSASVGDRVTITCKASQDVRNLVVWFQQKPGKAPKLLIYSGSYRYSGVPSRFSGSGSGTDFTLTISSLQPEDFATYYCQQHYSPPYTFGQGTKVEIK VH 2: EVQLVQSGAEVKKPGASVKVSCKASGFTFTSYYIHWVRQAPGQGLEWIGWIYPENDNTKYNEKFKDRVTITADTSTSTAYLELSSLRSEDTAVYYCARDGYSRYYFDYWGQGTLVTVSS VL 2: DIVMTQSPDSLAVSLGERATINCKSSQSLLNSRTRKNYLAWYQQKPGQSPKLLIYWTSTRKSGVPDRFSGSGSGTDFTLTISSLQAEDVAVYYCKQSFILRTFGQGTKVEIK |  |  | no binding | no binding | no binding
